From publication PMC8173049 come the findings set out here.

pKd: −log10 of the molar value.

In assay [1] the target is HAdV-B35 capsid (replication-defective, E1-deleted vector particle with a YFP expression cassette) (human adenovirus B35). Nature of the assay: SPR; BIAcore 3000; HAdV particles amine-coupled to a CM5 chip (3,500-4,000 RU, diluted in acetate buffer pH 4); lactoferrin 6.25-200 nM injected at 30 µl/min, 180 s association, 600 s dissociation; HBS-EP buffer (10 mM HEPES, 150 mM NaCl, 3 mM EDTA, 0.005% polysorbate 20, pH 7.4); bivalent fitting model. On the technique in general: In SPR one partner is held on a chip, and binding of the other changes the refractive index at the surface.

For assay [2], the target named is HAdV-C5 capsid (replication-defective, E1-deleted vector particle with a GFP expression cassette) (human adenovirus C5) (UniProt P04133). The assay is described as above.

A word on the pKd: it is the Kd on a negative log10 scale, so that one unit is a factor of ten. The low end stands for a high Kd, the high end for a low Kd. Take human lactoferrin (natural protein): the pKd in assay [1] was 4.27; in assay [2], 6.10.
